From the nanobody polyreactivity screen of Harvey et al. (2022)

Assay: yeast display, Sf9 membrane polyspecificity reagent, FACS + sequencing; frameworks hold sequencing errors
Outline: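 A nanobody's polyreactivity label depends on the gate it was sorted from. Yeast display cells were stained with 10% biotinylated, detergent-solubilized Sf9 membrane reagent for 1 hour at 4 °C, enriched on streptavidin microbeads and sorted by FACS. The low and high (top ~1%) gates were set on anti-HA fluorescence for expression and streptavidin fluorescence for reagent binding.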

Sequence | polyreactivity (PSR sort gate)
QVQLVESGGGLVQAGGSLRLSCAASGRIFYYYPMGWYRQAPGKEMELVARITGLTGRTYYADSVKGRFTISRDNSKNTVYLHMHSLKPQDTAVYYCAATDRWSRLGYWGQGTQVTVSS | high polyreactivity
QVQLVESGGGLVQAGGSLRLSCAASGRIFYYYVMGWYRQAPGKERELVATITKRGGDTYYADSVKGRFTISRDNAKNTVYLQMNSLKPEDTAVYYCAAVYLYYSRSDLYDYWGQGTQVTVSS | low polyreactivity
QVQLVESGGGLVQAGGSLRLSCAASGRIGAYAMGWYRQAPGKERELVAAIRWSTGSTYYADSVKGRFTISRDNAKNTVFLQMNSLKPEDTAVYYCAAEFVRRGGDFWGQGTQVTVSS | high polyreactivity
QVQLVESGGGLVQAGGSLRLSCAASGRIGRYAMGWYRQAPGKERELVAAITWSGGSTYYADSVKGRFTISRDNAKNTVYLQMNSLKPEDTAVYYCATGRYRDQPRTGYDYWGQGTQVTVSS | high polyreactivity
QVQLVESGGGLVQAGGSLRLSCAASGRIHVYTMRWYRQAPGQERELVAAITWSGTSTNYADSVKGRFTLSRDNAKNTVYLKMNILKPEDTAVYYCAADISGVLSVSNVRGFDYWGQGTQVTVSS | low polyreactivity
QVQLVESGGGLVQAGGSLRLSCAASGRIIADNAMGWYRQAPGKERELVATISSGGSTSYADSVKGRFTLSRDNAKNTVYLQMNSLKPEDTAVYYCATPFTGPSGPYDYWGQGTQGTVSS | low polyreactivity
QVQLVESGGGLVQAGGSLRLSCAASGRIIALNAMGWYRQAPGKERELVAAISRRGGSTYYADSVKGRFTISRDNAKNTVYLQMNSLKPEDTAVYYCATDSVRYGYDYWGQGTQVTVSS | high polyreactivity
QVQLVESGGGLVQAGGSLRLSCAASGRIIARNAMGWYRQAPGKEREFVAAITARGARTYYADSVKGRFTISRDNAKNTVYLQMNSLKPEDTAVYYCAVVQGNVYYTGDDYWGQGTQVTVSS | high polyreactivity
QVQLVESGGGLVQAGGSLRLSCAASGRIIAVYAMGWYRQAPGKERELVATIRGGGSTNYADSVKGRFTISRDNAKNTVYLQMNSLKPEDTAVYYCAALGGRYRASTYGYWGQGTQVTVSS | high polyreactivity
QVQLVESGGGLVQAGGSLRLSCAASGRIIGFYAMGRYRQAPGKERELFAAINTGGGTNYADSVKGRFTISRDNAKNTVYLQMNSLKPEDTAVYYCAARTYDYRARHKVGYWGQGTQVTVSS | high polyreactivity
QVQLVESGGGLVQAGGSLRLSCAASGRIIGPYTMGWYRQAPGKEMEFVAAITRRGGSTYYADSVKGRFTISRDNAKNTVYLQMNSLKPEDTEVYYCAAVGQKRSLGYSWGQGTQVTVSS | low polyreactivity
QVQLVESGGGLVQAGGSLRLSCAASGRIIIYNAMGWYRQAPGKERQLVAAINRSGVSTHYADSVKGRFTISRDNAKNTVYLQMNSLKPEDTAVYYCARTVYGARSYDYWGQGTQVTVSS | low polyreactivity
QVQLVESGGGLVQAGGSLRLSCAASGRIILDYAMGWYRQAPGKERELVAAITWRGGSTNYADSVKGRFTISRDNAKNTVYLQMNSLKPEDTAVYYCNADPDDQYDYWGQGTQVTVSS | low polyreactivity
QVQLVESGGGLVQAGGSLRLSCAASGRIINDYTMGWYRQAPGKERELVAAITTSTGSTYADSVKGRFTISRDNAKNTVYLQMNSLKPEDTAVYYCAADSRPGKYYEDDSWGQGTQVTVSS | low polyreactivity
QVQLVESGGGLVQAGGSLRLSCAASGRIIQRNTMGWYRQAPGKERELVAAISGSTGRTYYADSVKGRFTISRDNAKNTVYLQMNSLKPEDTAVYYCNTVGRSSSLSVFLIGYGYWGQGTQVTVSS | high polyreactivity
QVQLVESGGGLVQAGGSLRLSCAASGRIIRAYAMGWYRQAPGKERELVAAISGGSNTNYADSVKGRFKISRDNAKNTVYLQMNSLKPDDTAVYYCAADAGYWESLWYPYGFYWGQGTQVSVSS | low polyreactivity
QVQLVESGGGLVQAGGSLRLSCAASGRIIRIYTMGWYRQARGKERELVAAITKSGGSTSYADSVKGRFTISRDNAKNTVYLQMNSLKPEDTAVYYCNAKGWTRPPGYDYWGQGTQVTVSS | high polyreactivity
QVQLVESGGGLVQAGGSLRLSCAASGRIIRYYVMGWYRQAPGKEREFVASISGRGASTYYADSVKGRFTISRDNAKNTVYLQMNSLKPEDTAVYYWNKESYFDTYRRYDSWGQGTQVTVSS | low polyreactivity
QVQLVESGGGLVQAGGSLRLSCAASGRIISSYAMGWYRQAPGKERELVAAITSSGGSTYYADSVKGRFTISRDNAKNTVYLQMNSLKPEDTAVYYCAARVFARYYTAYGVETRREEDYWGQGTQLTVSS | low polyreactivity
QVQLVESGGGLVQAGGSLRLSCAASGRIISVNAMGWYRQAPGKERELVAAITTRGGTPYYADSVKGRFTISRDNAKNTVSLQMNSLKPEDTAVYYCAAESSWSVYWEWAHDYWGQGTQVTVSS | low polyreactivity
QVQLVESGGGLVQAGGSLRLSCAASGRIITFNPMGWYRQAPGKERELVAAISSRGDGTYYADSVKGRYTISRDNAKNSFYVQMNSLKPEDTAVYYCARYPDDYYDWGYDYWGHGTQVTVSS | low polyreactivity
QVQLVESGGGLVQAGGSLRLSCAASGRIIWSYAMGWYRQAPGKERELVAAIRSGGTTDYADSVKGRFTISRDNAKNTVYLQMNSLKPEDTAVYYCAADPYSVYGGDYWGQGTQVTVSS | low polyreactivity
QVQLVESGGGLVQAGGSLRLSCAASGRIIYIYAMGWYRQAPGKERELVAAITASSGSTNYADSVKGRFTISRDNAKNTVYLQMNSLKPEDTAVYYCAAAPSRTLLRQSKYYYWGQGTQVTVSS | low polyreactivity
QVQLVESGGGLVQAGGSLRLSCAASGRIIYRYAMGWYRQAPGKERELVAAISYRGGSTYYADSVKGRFTISRDNAKNTVYLQMNSLKPEDTAVYYCAADRRYYDWRYGGFDYWGQGTQVTVSS | high polyreactivity
QVQLVESGGGLVQAGGSLRLSCAASGRILATYTMGWYRQAPGKERELVATITSGGRTTYADSVKGRFTISRDNAKNTVYLQMNSLKPEDTAVYYCNVANWYYRKYRPLWGRDYYWGQGTQVTVSS | high polyreactivity
QVQLVESGGGLVQAGGSLRLSCAASGRILGKNALGWYRQAPGKEREWVADISGRGDRTHYADSVKGRFTISRDNAKNTVYLQMNSLNAEYTAVYYCAKYHHPPGKGQSVSLGYDFWGQGTQVTVSS | low polyreactivity
QVQLVESGGGLVQAGGSLRLSCAASGRILGKYAMGWYRQAAGKERELVAAIRLRGGSTYYADSVKGRFTISRDNAKNTVYLQMNSLKPEDTAVYYCAARYWDRSQAYNYWGQGTQVTVSS | high polyreactivity
QVQLVESGGGLVQAGGSLRLSCAASGRILGSYAMGWYRQAPGKERELVAAISSGARTNYADSVKGRFTISRDHAKNTVYLQMNCLKPEDTAVYYCAAATYNQDYSYDYWGQGTQVTVSS | low polyreactivity
QVQLVESGGGLVQAGGSLRLSCAASGRILGSYAMGWYRQAPGKERELVAGISWRGGRTYYADSVKGRFTISRDNAKNTVYLQLNSLKPEDTAVYYCATRSSSRKYGYWGQGTQVTVSS | high polyreactivity
QVQLVESGGGLVQAGGSLRLSCAASGRILGSYAMGWYRQAPGKERELVAGISWRGGRTYYADSVKGRFTISRDNAKNTVYLQMNSLKPEDTAVYYCATRSSSRKYGYWGQGTQVTVSS | high polyreactivity
